Substrate: Nc1c(Cl)cccc1-c1cc[nH]c1
Experiment: purified protein
Assay type: biochemical, Pseudomonas fluorescens
Details: E. coli Fre 2.5 μM, FAD 1 μM, MgCl2 10 mM, NADH 2.5 mM, 20 mM Tris pH 7.4, PrnC 2.5 μM, chlorination

B1: PrnC (NT11-PrnC-6His; native PrnC) (Pseudomonas fluorescens) (protein)
chain: MTQKSPANEHDSNHFDVIILGSGMSGTQMGAILAKQQFRVLIIEESSHPRFTIGESSIPETSLMNRIIADRYGIPELDHITSFYSTQRYVASSTGIKRNFGFVFHKPGQEHDPKEFTQCVIPELPWGPESHYYRQDVDAYLLQAAIKYGCKVHQKTTVTEYHADKDGVAVTTAQGERFTGRYMIDCGGPRAPLATKFKLREEPCRFKTHSRSLYTHMLGVKPFDDIFKVKGQRWRWHEGTLHHMFEGGWLWVIPFNNHPRSTNNLVSVGLQLDPRVYPKTDISAQQEFDEFLARFPSIGAQFRDAVPVRDWVKTDRLQFSSNACVGDRYCLMLHANGFIDPLFSRGLENTAVTIHALAARLIKALRDDDFSPERFEYIERLQQKLLDHNDDFVSCCYTAFSDFRLWDAFHRLWAVGTILGQFRLVQAHARFRASRNEGDLDHLDNDPPYLGYLCADMEEYYQLFNDAKAEVEAVSAGRKPADEAAARIHALIDERDFAKPMFGFGYCITGDKPQLNNSKYSLLPAMRLMYWTQTRAPAEVKKYFDYNPMFALLKAYITTRIGLALKK
notes: N-terminal 11-residue NT11 solubility tag and C-terminal 6His tag, pET-28a(+), expressed in E. coli T7 Express, Ni-NTA purified; dimer by cryo-EM
  Km: 15.8 ± 0.7 µM
  kcat: 0.00767 s⁻¹
